T1: human ASGR-1 mutant construct H203 (human, UniProt P07306 1-291)
T1 construct: Arg/Glu scanning: non-arginine residues were changed to arginine; Transiently expressed on CHO-S cells
T1 sequence: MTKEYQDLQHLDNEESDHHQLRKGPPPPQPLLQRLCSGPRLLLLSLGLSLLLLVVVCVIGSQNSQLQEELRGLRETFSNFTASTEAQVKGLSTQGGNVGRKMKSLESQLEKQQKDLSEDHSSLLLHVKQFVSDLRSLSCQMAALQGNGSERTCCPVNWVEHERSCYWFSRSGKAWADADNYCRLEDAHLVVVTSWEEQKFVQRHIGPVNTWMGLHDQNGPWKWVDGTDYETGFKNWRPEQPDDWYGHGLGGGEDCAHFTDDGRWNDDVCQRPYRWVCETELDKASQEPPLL


Biological target: T1, human ASGR-1 mutant construct H203
Experiment: FACS, transfected CHO-S cells, mAb 5 ug/ml
Summary of the method: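 Transiently transfected CHO-S cells expressing wild-type or mutant hASGR-1 incubated with antibody at 5 ug/ml, 1 h at 4 °C; bound antibody detected by Alexa Fluor 647 anti-Fc plus 7-AAD, by flow cytometry. Binding normalized to expression using an unaffected antibody (65C12), then to wild type; hits defined as >3× IQR above third quartile.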

| Binder | FACS Binding Geomean |
| --- | --- |
| 6G7 (antibody, V domains shown, mAb) VH: QVQLVESGGGVVQPGRSLRLSCAASGFTFSSYGMHWVRQTPGKGLEWVAIISYVGKNKYYADSVKGRFTISRDNSKNTLYLQMNSLRAEDTAVYYCARRGNSYGGYGMDVWGQGTTVTVSS VL: DIQMTQSPSSRSASVGDRVTITCQASQDISNYLNWCQQKPGKALKLLIYDASTLETGVPSRFSGSGSGTDFTFTISSVQPEDIATYYCQQYDNVPITFGQGTRLEIK | 15100 |
| 190F8 (antibody, V domains shown, mAb) VH: QVQLVESGGGVVQPGRSLRLSCAASGFTFSTYGMHWVRQAPGKGLEWVAVIWYDGSNKNYADSVKGRFTISRDNSKNTLYLQMNSLRAEDTAVYYCARDQGVGYDGLDVWGQGTTVTVSS VL: DIQMTQSPSSLSASVGDRVTITCRTSQGIGNYLAWFQQKPGKAPKSLLYKASSLQSGVPSKFSGSGSGTDFTLTISSLQPEDFATYYCQQYMTYPLTFGGGTKVEIK | 15100 |
| 4A2 (antibody, V domains shown, mAb) VH: QVQLVQSGTEVKKPGASVKVSCKASGYTFTNYDINWVRQATGQGLEWMGWMHPNSGNTGYAQKFQGRVTLTRNTSISTAYMELSSLRSEDTAVYYCASSSGWYYFDYWGQGTLVTVSS VL: DIVMTQSPDSLAVSLGERATINCKSSQSILHSSNNNNYLAWFQQKPGQPPKLLLYWASTRESGVPDRFSGSGSGTDFTLTISSLQPEDVAVYYCQQYYNTPVTFGPGTKVGIK | 18900 |
| 26C4 (antibody, V domains shown, mAb) VH: QVQLVQSGAEVKKPGASVKVSCKASGYTFTNYDINWVRQASGQGLEWMGWMNPNSGNTGYAQRFQGRVTMTRNTSINTAYMELSSLRSEDTAVYYCASSSGWYYFDYWGQGTLVTVSS VL: not shown | 13500 |
| 25A4 (antibody, V domains shown, mAb) VH: QVLLVQSGAEVKRPGASVKVSCKASGYTFTNYDINWVRQATGQGLEWMGWMYPNSGNTGYAQKFQGRVTMTRNTSISTAYMELSSLRSEDTAVYYCASSSGWYYFDYWGQGTLVTVSS VL: DIVMTQFPDSLAVSLGERATIKCKSSQSVLYSSHNNNYLAWYQQKPGQPPKLLLYWASTRESGVPDRFSGSGSGTEFTLTISSLEAEDVAVYYCQQYYSTPPTFGQGTKVEIK | 20000 |
| 29H8 (antibody, V domains shown, mAb) VH: QVQLVQSGAEVQKPGASVKVSCKASGYTFTNYDINWVRQATGQGLEWMGWMNPNSGNTGYAQRFQGRVTMTRNTSISAAYMELSSLRSEDTAVYYCASSSGWYYFDYWGQGTLVTVSS VL: not shown | 13200 |
| 7E11 (antibody, V domains shown, mAb) VH: QVQLVESGGGVVQPGRSLRLSCAASGFTFSSFGMHWVRQAPGKGLEWVAIIWHDGSNKYYADSVKGRFTISRDNSNNTLYLQMSSLRAEDTAVYYCARDLSMGGMDVWGQGTTVTVSS VL: DIQMTQSPSSLSASVGDRVTIACRASQNIISYLNWYQQKPGKAPKFLIYTASSLQSGVPSRFSGSGSGTDFTLTISSLQPEDFAIYYCQQTYSTPLTFGGGTKVEIK | 14700 |
| 5E5 (antibody, V domains shown, mAb) VH: QVQLVESGGGVVQPGRSLRLSCAASGFTFSNYVMHWVRQAPGKGLEWVAVIWYDGSNKYYADSVKGRFTISRDNSKNTLYLQMNSLRAEDTAVYYCTREVYSSGWYDYGMDVWGQGTTVTVSS VL: DIQMTQSPSSLSASVGDRVTITCRASQGIRNDLGWYQQKPGKAPKRLIYAASSLQSGVPSRFSGSGSGTEFTLTISSLQPEDFATYYCLQHYSYPRTFGQGTKVEVK | 12600 |
| 7G4 (antibody, V domains shown, mAb) VH: QVQLVESGGGVVQPGRSLRLSCAASGFTFNNYVMHWVRQAPGKGLEWVAVIWYDGSNKYYADSVKGRFTISRDNSKNTLYLQMTSLRAEDTAVYYCAREKYSSNWYDYGMDVWGQGTTVTVSS VL: DIQMTQSPSSLSASVGDRVTITCRASQGIRNDLGWYQQRPGKAPKRLIYAASSLQSGVPSRFSGSGSGTEFTLTISSLQPEDSATYYCLHQYSYPRTFGQGTKVEIK | 18500 |
| 22G5 (antibody, V domains shown, mAb) VH: EVQLLESGGGLVQPGGSLRLSCAASGFTFSSYAMNWVRQAPGMGLEWVSVISRSGGYTYYADSVKGRFTISRDNSKNTLYLQMNSLRAEDTAVYYCASRLAVAGSEAFDIWGQGTLVTVSS VL: DIQMTQSPSSLSASVGDRVTITCRASQNISSYLNWYQQKQGKAPKLLIYAASSLQNGVPSRFSGRGSGTDFTLTISSLQPEDFATYYCQQSYRTPLFTFGPGTKVDFK | 15100 |

Next, values leading:

| FACS Binding Geomean | Binder |
| --- | --- |
| 3500 | 197G3 (antibody, V domains shown, mAb) VH: QVQLVESGGGVVQPGRSLRLSCVASGFTFSSHGMHWVRQAPGKGLEWVAVIWYDGSNKNYADSVKGRFTISRDNSKNTLYLQMNSLRAEDTAVYYCARDPSVGYDGMDVWGQGTTVTVSS VL: DIQMTQSPSSLSASVGDRVTITCRASQGIGNHLAWFQQKPGKAPKSLIYAASSLQSGVPSKFSGSRSGTDFSLTISSLQPEDFATYYCQQYSNYPVTFGPGTKVDIK |
| 11000 | 194C1 (antibody, V domains shown, mAb) VH: QVQLVESGGGVVQPGRSLRLSCAASGFTFSSYGMHWVRQAPGKGLEWVAVIWYDGSNEHYADSVKGRFTISRDNSKNTLYLQMNSLRAEDTAVYYCARNRGVGYYGLDVWGQGTTVTVSS VL: DIQMTQSPSSLSASVGDRVTITCRASQGISNYLAWFQQKPGKAPKSLIYAASSLQSGVPSKFSGSGSGTDFTLTISSLQPEDFATYYCLHYLTYPLTFGGGTKVEIK |
| 13100 | 198G3 (antibody, V domains shown, mAb) VH: QVQLVESGGGVVQPGRSLKLSCAASGFTFSTYGMHWVRQAPGKGLEWVAVIWYDGTNKNYADSVKGRFTISRDNSKNTLCLQMNSLRAEDTAVYYCARDQGVGYDGLDVWGQGTTVTVSS VL: DIQMAQSPSSLSASVGDRVTITCRTSQGIGKYLAWFQQKPGKAPKSLLYKASSLQGGVPSKFSGSGSGTDFTLTISSLQPEDFATYYCQQYMTYPLTFGGGTKVEIK |
| 17000 | 191G10 (antibody, V domains shown, mAb) VH: QVQLVESGGGVVQPGRSLRLSCAASGFTFSSYGMHWVRQAPGKGLEWVAVIWYDGSNKNYADSVKGRFTISRDNSKNTLYLQMNSLRAEDTAVYYCARDQGVGYDGLDVWGQGTTVTVSS VL: DIQMTQSPSSLSASVGDRVTITCRTSQGIGKYLAWFQQKPGKAPKSLLYKVSSLQSGVPSKFSGSGSGTDFTLTISSLQPEDFATYYCQQYMTYPLTFGGGTKVEIK |
| 10900 | 191G1 (antibody, V domains shown, mAb) VH: QVQLVESGGGVVQPGRSLRLSCAASGFTFSSYGMHWVRQAPGKGLEWVAVIWYDGSNEHYADSVKGRFTISRDNSKNTLYLQMNSLRAEDTAVYYCARDRGVGYYGLDVWGQGTTVTVSS VL: DIQMTQSPSSLSASVGDRVTITCRASQGISNYLAWFQQKPGKAPKSLIYAASSLQSGVPSKFSGSGSGTDFTLTISSLQPEDFATYYCQHYLTYPLTFGGGTKVEIK |
| 10200 | 176H4 (antibody, V domains shown, mAb) VH: QVQLVESGGGVVQPGRSLRLSCAASGFTFSSYGMHWVRQAPGKGLEWVAIIWYDGSYKYYADSVKGRFTISRDNSKNTLYLQMSSLRAEDTAVYYCARDAHDFWSGYFAYWGQGALVTVSS VL: DIVMTQTPLSLSVTPGQPASISCKSSQSLLHGDGKTYLYWYLQKPGQPPQLLIYEVSNRFSGVPDRFSGSGSGTDFTLKISRVEAEDVGIYYCMQSIQIPWTFGQGTRVEIK |
| 18400 | 184E7 (antibody, V domains shown, mAb) VH: QVQLVQSGAEVKTPGASVKVSCRASGYTFTSYNMHWVRQVPGQGLEWMGWINPNNGGSNYTQKFQGRVTMTRDTSISTAYMELSRLRSDDTAVYYCARKFGDWGQGTLVTVSS VL: DIQMTQSPSSRSASIGERVTITCRASQGISNYLAWIQQKPGTAPKSLIYAASSLQSGVSSRFSGSGFGTDFTITISSVQREDFATYYCQQYNGYPFTFGHGTKVDIK |
| 20300 | 56E5 (antibody, V domains shown, mAb) VH: QVQLVQSGAEVKKPGASVKVSCQASGYTFTGYHMHWVRQAPGQGLEWMGWINPNNNATNYAQKFQGRVTMTRDTSISTAYMELRRLRSDDTAVYHCARDGTSSFDYWGQGTLVTVSS VL: DIQMTQSPSSVSASVGDRVTITCRASQGIRKWLAWYQQKPGKAPKLLIYAASSLQSGVPSRFSGSGSGTDFTLTISSLQPEDFATYYCQQANSFPFTFGPGTKVDIK |
| 18800 | 72G9 (antibody, V domains shown, mAb) VH: EVQLVESGGGLVKPGGSLRLSCAASGFTFSSYSMNWVRQAPGKGLEWVSSISGSSSYIYYADSVKGRFTISRDNAKNSLYLQMNSLRAEDTAVYFCARGGSRGFDPWGQGTLVTVSS VL: DIQMTQSPSSLSASVGDRVTITCRASQSITSYLNWYQQKPGKAPKLLIYTASSLQSGVPSRFSGSGSGTDFTLTISSLQPEDFATYYCQQSHSFPFTFGPGTKVDIK |
| 20500 | 48B12 (antibody, V domains shown, mAb) VH: EVQLLESGGGLVQPGGSLRLSCAASGFTFSSYAMNWVRQAPGKGLEWVSAISGRGGNTFYADSVKGRFTISRDNSKNTLYLQMNSLRAEDTAVYYCAKRETYNWNYEGFDYWGQGTLVTVSS VL: SYELTQPPSVSVSPGQTARITCSGDALPKKYAYWYQQKSGQAPVLVIYEDSKRPSGIPERFSGSSSGTMATLTISGAQVEDEADYYCNSTDSSGNHVVFGGGTKLTVL |
| 12100 | 194A4 (antibody, V domains shown, mAb) VH: QVQLVQSGTEVKKPGASLKVSCKASGYTFTVYYLNWVRQAPGQGLEWMGWINPNSGGTNYAQKFQGRVTMTRDTSISTAYMELSRLRSDDTAVYYCARGYDILTGWGQGTLVTVSS VL: EIVLTQSPGTLSLSPGERATLSCRASRGVSNIYLAWYQQKPGQAPRLLIYGASNRATGIPDRFSGSGSGTDFTLTISRLEPEDFAVYYCQHNDYSMFTFGPGTKVDIK |
